Earlier results on 6 substances are cited in article PMC4339652.

Where “and” joins values, the source holds several entries; their conditions need not be identical. Equal values may be shown once. Read-outs that look alike come from different tables or passages of the source.

By Kd is commonly meant the free concentration of one partner at which half of the binding sites on the other are occupied at equilibrium, for simple one-to-one binding.

Data set [1] addresses TolA TolAII-III (Escherichia coli) (UniProt P19934). Kind of data set: SPR. (In general: In SPR one partner is held on a chip, and binding of the other changes the refractive index at the surface.)
Data set [2] concerns the target TolA TolAIII (Escherichia coli) (UniProt P19934). Kind of data set: SPR.
The target is the same in data set [3]. Kind of data set: ITC. (In ITC the heat of successive injections is recorded.)
The target is the same in data set [4]. Briefly: stopped flow fluorescence.
Data set [5] addresses TolB (Escherichia coli) (UniProt P0A855). Briefly: ITC.
Data set [6] addresses Colicin N 40-90 (Escherichia coli) (UniProt P08083). Briefly: SPR.
Data set [7] has as its target Colicin N T domain (Escherichia coli) (UniProt P08083).
For data set [8], the target named is G3p N1 (Filamentous phage) (UniProt O80297).
For data set [9], the target named is TolB (Escherichia coli) (UniProt P0A855). Kind of data set: ITC. This is another data set of the same source.
Chain of TolB (Escherichia coli) (P0A855 22-430): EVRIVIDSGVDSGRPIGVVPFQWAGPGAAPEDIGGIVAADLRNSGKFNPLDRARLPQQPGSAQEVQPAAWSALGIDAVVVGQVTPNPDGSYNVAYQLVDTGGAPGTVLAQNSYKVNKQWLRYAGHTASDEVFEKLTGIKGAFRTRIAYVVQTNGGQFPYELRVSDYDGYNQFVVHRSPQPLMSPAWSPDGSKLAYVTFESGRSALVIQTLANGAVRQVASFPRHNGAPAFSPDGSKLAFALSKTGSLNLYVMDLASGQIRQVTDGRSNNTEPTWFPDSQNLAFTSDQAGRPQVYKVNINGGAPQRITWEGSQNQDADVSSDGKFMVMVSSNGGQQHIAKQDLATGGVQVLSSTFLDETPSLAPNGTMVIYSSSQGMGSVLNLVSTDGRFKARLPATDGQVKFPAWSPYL

Chain of TolA TolAIII (P19934 311-421): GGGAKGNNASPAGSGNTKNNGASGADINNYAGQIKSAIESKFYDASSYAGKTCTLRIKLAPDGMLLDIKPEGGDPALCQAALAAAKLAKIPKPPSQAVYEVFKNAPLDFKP
Chain of TolA TolAIII (Escherichia coli) (P19934 311-421): as above
Chain of TolA TolAII-III (P19934 48-421): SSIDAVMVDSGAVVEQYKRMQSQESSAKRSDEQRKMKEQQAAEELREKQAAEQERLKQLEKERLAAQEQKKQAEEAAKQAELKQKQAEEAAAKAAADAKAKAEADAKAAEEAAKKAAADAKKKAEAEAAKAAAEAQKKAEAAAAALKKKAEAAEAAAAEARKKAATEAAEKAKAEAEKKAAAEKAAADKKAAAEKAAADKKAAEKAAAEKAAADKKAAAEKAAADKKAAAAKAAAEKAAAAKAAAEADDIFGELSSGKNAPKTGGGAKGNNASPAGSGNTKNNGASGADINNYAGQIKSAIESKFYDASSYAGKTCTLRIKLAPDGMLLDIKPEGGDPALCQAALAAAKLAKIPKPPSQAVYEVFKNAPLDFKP
Chain of Colicin N 40-90 (P08083 40-90): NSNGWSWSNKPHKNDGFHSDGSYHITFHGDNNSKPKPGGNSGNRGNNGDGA
Chain of Colicin N 40-90 (Escherichia coli) (P08083 40-90): as above
Chain of Colicin N T domain (1-90) (P08083 1-90): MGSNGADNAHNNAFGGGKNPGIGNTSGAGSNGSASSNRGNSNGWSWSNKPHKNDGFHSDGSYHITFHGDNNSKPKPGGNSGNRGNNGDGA
Chain of TolA TolA (P19934 whole entry): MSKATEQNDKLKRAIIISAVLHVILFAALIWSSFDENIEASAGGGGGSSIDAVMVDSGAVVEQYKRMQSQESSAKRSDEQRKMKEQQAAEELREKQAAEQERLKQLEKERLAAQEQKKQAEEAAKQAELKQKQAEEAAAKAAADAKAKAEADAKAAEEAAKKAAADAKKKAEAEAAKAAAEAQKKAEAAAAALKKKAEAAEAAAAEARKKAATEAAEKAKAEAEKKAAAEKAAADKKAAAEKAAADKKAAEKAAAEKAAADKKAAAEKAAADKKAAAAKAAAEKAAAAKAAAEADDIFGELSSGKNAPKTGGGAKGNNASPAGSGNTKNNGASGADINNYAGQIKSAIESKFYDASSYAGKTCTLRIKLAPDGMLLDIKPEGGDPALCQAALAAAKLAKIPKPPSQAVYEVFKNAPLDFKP
Chain of G3p N1 (Filamentous phage) (O80297 18-79): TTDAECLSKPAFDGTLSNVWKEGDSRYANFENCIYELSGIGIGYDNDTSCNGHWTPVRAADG
Chain of TolA TolAII-III (Escherichia coli) (P19934 48-421): as the sequence (P19934 48-421) above
Chain of G3p N1 domain (P69168 16-88): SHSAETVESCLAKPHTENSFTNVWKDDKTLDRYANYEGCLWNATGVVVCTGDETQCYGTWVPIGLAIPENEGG
Chain of Colicin N T domain (Escherichia coli) (P08083 1-90): as the sequence (P08083 1-90) above

Take Colicin N 40-90 (from UniProt P08083): the Kd is 940 nM in [1]; 850 nM and 190 nM in data set [2].
In the case of “Colicin N T domain (1-90) (from UniProt P08083)”, the dissociation constant (Kd) in data set [3] is 1000 nM; in data set [2] it was 1250 nM; in [4], 2300 nM.
Take G3p N1 domain (from UniProt P69168): in data set [2], the equilibrium dissociation constant (Kd) is 1000 nM.
On to TolA TolA (from UniProt P19934), for which the Kd in data set [5] is 40000 nM.
As for TolA TolAII-III (from UniProt P19934), the Kd in data set [6] is 190 nM and 940 nM and 850 nM.
Consider TolA TolAIII (from UniProt P19934), for which the Kd in data set [7] was 1000 nM; in data set [8], 1000 nM; in data set [5], 13000 nM; in [9], 40000 nM.
